The target of assay [1] is T1, FcγRIIIa extracellular domain with C-terminal His tag (human, UniProt P08637 17-208).
T1 construct: extracellular domain; also called 3a; FcgRIIIa; not shown: His tag at the C terminus
The assay can be described thus: SPR (Biacore), relative to GpH7-A5/GpH7-B3/GpL16-k0 = 100. (SPR reads the build-up and loss of mass on a sensor chip optically.)

Assay [2] deals with T2, FcγRIIb extracellular domain with C-terminal His tag (human, UniProt P31994 43-217).
T2 construct: extracellular domain; also called 2b; FcgRIIb; not shown: His tag at the C terminus
T2 sequence (looked up): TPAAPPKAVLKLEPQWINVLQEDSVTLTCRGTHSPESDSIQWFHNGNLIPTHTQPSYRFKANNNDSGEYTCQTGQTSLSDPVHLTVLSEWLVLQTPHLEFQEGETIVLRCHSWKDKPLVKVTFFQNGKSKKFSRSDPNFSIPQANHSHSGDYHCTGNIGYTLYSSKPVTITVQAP
Described as above.

Assay [3] concerns the target T3, FcγRIa (human, UniProt P12314 16-292).
T3 construct: extracellular domain; Soluble extracellular domain with C-terminal His tag, used as analyte; also called FcgRI; CD64; not shown: His tag at the C terminus
In words: SPR (Biacore), captured antibody, FcγR as analyte, relative binding.

Assay [4] deals with T4, FcγRIIb (human, UniProt P31994 43-217).
T4 construct: extracellular domain; Soluble extracellular domain with C-terminal His tag, used as analyte; also called FcgRIIb; CD32B; not shown: His tag at the C terminus
T4 sequence (looked up): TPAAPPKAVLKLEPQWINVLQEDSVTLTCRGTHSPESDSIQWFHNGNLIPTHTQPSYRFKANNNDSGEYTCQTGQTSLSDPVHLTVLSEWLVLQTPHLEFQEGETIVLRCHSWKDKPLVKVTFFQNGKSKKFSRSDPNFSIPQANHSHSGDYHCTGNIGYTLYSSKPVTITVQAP
The description is as above.

The values below come from patent US20150344570A1 (published 2015).

T3 sequence (P12314 16-292): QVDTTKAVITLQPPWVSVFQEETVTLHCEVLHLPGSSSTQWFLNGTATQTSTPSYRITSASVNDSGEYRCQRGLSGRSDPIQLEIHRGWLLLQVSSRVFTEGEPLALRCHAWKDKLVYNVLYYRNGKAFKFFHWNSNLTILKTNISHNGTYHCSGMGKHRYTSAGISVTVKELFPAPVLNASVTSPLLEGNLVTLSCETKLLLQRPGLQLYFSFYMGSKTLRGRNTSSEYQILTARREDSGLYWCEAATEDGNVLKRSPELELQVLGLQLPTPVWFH
T1 sequence (P08637 17-208): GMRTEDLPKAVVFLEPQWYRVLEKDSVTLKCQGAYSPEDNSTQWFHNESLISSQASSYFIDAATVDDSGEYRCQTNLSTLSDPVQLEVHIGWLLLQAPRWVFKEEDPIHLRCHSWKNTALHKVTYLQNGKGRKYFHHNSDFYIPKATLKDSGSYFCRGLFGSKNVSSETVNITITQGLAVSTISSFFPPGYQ

B1: GpH7-A5/GpH7-B3 variant H268_01G/GpL16-k0 (antibody, human IgG1, kappa)
heavy 1: not shown
heavy 2: not shown
light: DIVMTQSPLSLPVTPGEPASISCQASESLVHSNRNTYLHWYLQKPGQSPQLLIYKVSNRFSGVPDRFSGSGSGTDFTLKISRVEAEDVGVYYCSQNTHVPPTFGQGTKVEIERTVAAPSVFIFPPSDEQLKSGTASVVCLLNNFYPREAKVQWKVDNALQSGNSQESVTEQDSKDSTYSLSSTLTLSKADYEKHKVYACEVTHQGLSSPVTKSFNRGEC
notes: IgG1, anti-glypican-3; also called He Ab
For the molecule B1, in assay [1], the He/Con_3a was 96.7 % (control = 100). Also, in assay [2], the He/Con_2b was 144 % (control = 100).

B2: GpH7-A5/GpH7-B3 variant Y300_06M/GpL16-k0 (antibody, human IgG1, kappa)
heavy 1: not shown
heavy 2: not shown
light: DIVMTQSPLSLPVTPGEPASISCQASESLVHSNRNTYLHWYLQKPGQSPQLLIYKVSNRFSGVPDRFSGSGSGTDFTLKISRVEAEDVGVYYCSQNTHVPPTFGQGTKVEIERTVAAPSVFIFPPSDEQLKSGTASVVCLLNNFYPREAKVQWKVDNALQSGNSQESVTEQDSKDSTYSLSSTLTLSKADYEKHKVYACEVTHQGLSSPVTKSFNRGEC
notes: He Ab: mutation in one H chain only; also called He Ab
On to B2, for which the He/Con_1a in assay [3] is 112 % of GpH7-A5/GpH7-B3/GpL16-k0. Further, the He/Con_2b in assay [4] was 84.3 % of GpH7-A5/GpH7-B3/GpL16-k0.

B3: GpH7-A5/GpH7-B3 variant Y300_09D/GpL16-k0 (antibody, human IgG1, kappa)
heavy 1: not shown
heavy 2: not shown
light: DIVMTQSPLSLPVTPGEPASISCQASESLVHSNRNTYLHWYLQKPGQSPQLLIYKVSNRFSGVPDRFSGSGSGTDFTLKISRVEAEDVGVYYCSQNTHVPPTFGQGTKVEIERTVAAPSVFIFPPSDEQLKSGTASVVCLLNNFYPREAKVQWKVDNALQSGNSQESVTEQDSKDSTYSLSSTLTLSKADYEKHKVYACEVTHQGLSSPVTKSFNRGEC
notes: as for B2
On to B3, for which, in assay [3], the He/Con_1a was 112 % of GpH7-A5/GpH7-B3/GpL16-k0. Moreover, in assay [4], the He/Con_2b was 93.2 % of GpH7-A5/GpH7-B3/GpL16-k0.

B4: GpH7-A5/GpH7-B3 variant Y300_13S/GpL16-k0 (antibody, human IgG1, kappa)
heavy 1: not shown
heavy 2: not shown
light: DIVMTQSPLSLPVTPGEPASISCQASESLVHSNRNTYLHWYLQKPGQSPQLLIYKVSNRFSGVPDRFSGSGSGTDFTLKISRVEAEDVGVYYCSQNTHVPPTFGQGTKVEIERTVAAPSVFIFPPSDEQLKSGTASVVCLLNNFYPREAKVQWKVDNALQSGNSQESVTEQDSKDSTYSLSSTLTLSKADYEKHKVYACEVTHQGLSSPVTKSFNRGEC
notes: as for B2
B4: the He/Con_1a in assay [3] is 111 % of GpH7-A5/GpH7-B3/GpL16-k0. For the same molecule, the He/Con_2b in assay [4] is 53.9 % of GpH7-A5/GpH7-B3/GpL16-k0.

B5: GpH7-A5/GpH7-B3 variant Y300_07I/GpL16-k0 (antibody, human IgG1, kappa)
heavy 1: not shown
heavy 2: not shown
light: DIVMTQSPLSLPVTPGEPASISCQASESLVHSNRNTYLHWYLQKPGQSPQLLIYKVSNRFSGVPDRFSGSGSGTDFTLKISRVEAEDVGVYYCSQNTHVPPTFGQGTKVEIERTVAAPSVFIFPPSDEQLKSGTASVVCLLNNFYPREAKVQWKVDNALQSGNSQESVTEQDSKDSTYSLSSTLTLSKADYEKHKVYACEVTHQGLSSPVTKSFNRGEC
notes: as for B2
For the molecule B5, the He/Con_1a in assay [3] was 108 % of GpH7-A5/GpH7-B3/GpL16-k0. Also, in assay [4], the He/Con_2b is 74.5 % of GpH7-A5/GpH7-B3/GpL16-k0.

B6: GpH7-A5/GpH7-B3 variant Y300_20W/GpL16-k0 (antibody, human IgG1, kappa)
heavy 1: not shown
heavy 2: not shown
light: DIVMTQSPLSLPVTPGEPASISCQASESLVHSNRNTYLHWYLQKPGQSPQLLIYKVSNRFSGVPDRFSGSGSGTDFTLKISRVEAEDVGVYYCSQNTHVPPTFGQGTKVEIERTVAAPSVFIFPPSDEQLKSGTASVVCLLNNFYPREAKVQWKVDNALQSGNSQESVTEQDSKDSTYSLSSTLTLSKADYEKHKVYACEVTHQGLSSPVTKSFNRGEC
notes: as for B2
As to B6, the He/Con_1a in assay [3] was 112 % of GpH7-A5/GpH7-B3/GpL16-k0. In assay [4], the He/Con_2b was 84.1 % of GpH7-A5/GpH7-B3/GpL16-k0.

B7: GpH7-A5/GpH7-B3 variant Y300_11K/GpL16-k0 (antibody, human IgG1, kappa)
heavy 1: not shown
heavy 2: not shown
light: DIVMTQSPLSLPVTPGEPASISCQASESLVHSNRNTYLHWYLQKPGQSPQLLIYKVSNRFSGVPDRFSGSGSGTDFTLKISRVEAEDVGVYYCSQNTHVPPTFGQGTKVEIERTVAAPSVFIFPPSDEQLKSGTASVVCLLNNFYPREAKVQWKVDNALQSGNSQESVTEQDSKDSTYSLSSTLTLSKADYEKHKVYACEVTHQGLSSPVTKSFNRGEC
notes: as for B2
Take B7: the He/Con_1a in assay [3] was 107 % of GpH7-A5/GpH7-B3/GpL16-k0. Moreover, the He/Con_2b in assay [4] was 51.6 % of GpH7-A5/GpH7-B3/GpL16-k0.

B8: GpH7-A5/GpH7-B3 variant K326_16H/GpL16-k0 (antibody, human IgG1, kappa)
heavy 1: not shown
heavy 2: not shown
light: DIVMTQSPLSLPVTPGEPASISCQASESLVHSNRNTYLHWYLQKPGQSPQLLIYKVSNRFSGVPDRFSGSGSGTDFTLKISRVEAEDVGVYYCSQNTHVPPTFGQGTKVEIERTVAAPSVFIFPPSDEQLKSGTASVVCLLNNFYPREAKVQWKVDNALQSGNSQESVTEQDSKDSTYSLSSTLTLSKADYEKHKVYACEVTHQGLSSPVTKSFNRGEC
notes: as for B1
For the molecule B8, the He/Con_3a in assay [1] is 96.1 % (control = 100). Moreover, the He/Con_2b in assay [2] was 119 % (control = 100).

B9: GpH7-A5/GpH7-B3 variant H268_05P/GpL16-k0 (antibody, human IgG1, kappa)
heavy 1: not shown
heavy 2: not shown
light: DIVMTQSPLSLPVTPGEPASISCQASESLVHSNRNTYLHWYLQKPGQSPQLLIYKVSNRFSGVPDRFSGSGSGTDFTLKISRVEAEDVGVYYCSQNTHVPPTFGQGTKVEIERTVAAPSVFIFPPSDEQLKSGTASVVCLLNNFYPREAKVQWKVDNALQSGNSQESVTEQDSKDSTYSLSSTLTLSKADYEKHKVYACEVTHQGLSSPVTKSFNRGEC
notes: as for B1
For the molecule B9, the He/Con_3a in assay [1] is 76.4 % (control = 100). Besides, the He/Con_2b in assay [2] is 116 % (control = 100).
